# In patent US20190185537A1 (AstraZeneca / MedImmune, published 2019):
# Read-outs that look alike come from different tables or passages of the source. Numbered stars: 1 amine (or outer) side, 2 acyl side, 3 side chain; on linkers, the order of the positions; unused ones are H or OH. Side chains are listed from the residue outwards. Ends that are not written are not given here. * marks the point of attachment. γGlu = O=C(O)[C@H](CCC(=O)[*:2])N[*:1]; Palmitoyl = CCCCCCCCCCCCCCCC(=O)*
# T1: human glucose-dependent insulinotropic peptide (gastric inhibitory polypeptide) receptor (human, UniProt P48546 22-466)
# T1 sequence (looked up): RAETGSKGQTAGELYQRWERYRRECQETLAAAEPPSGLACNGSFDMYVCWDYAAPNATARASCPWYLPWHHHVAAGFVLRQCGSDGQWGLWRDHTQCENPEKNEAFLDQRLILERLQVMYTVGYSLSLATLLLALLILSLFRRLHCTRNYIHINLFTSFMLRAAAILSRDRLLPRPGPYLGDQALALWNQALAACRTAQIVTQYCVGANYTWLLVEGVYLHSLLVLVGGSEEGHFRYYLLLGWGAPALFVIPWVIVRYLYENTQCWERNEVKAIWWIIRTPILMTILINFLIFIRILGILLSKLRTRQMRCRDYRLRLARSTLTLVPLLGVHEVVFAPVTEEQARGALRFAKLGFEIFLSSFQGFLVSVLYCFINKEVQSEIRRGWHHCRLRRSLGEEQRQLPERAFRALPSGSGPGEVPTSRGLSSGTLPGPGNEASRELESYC
# T2: mouse GLP-1 receptor (mouse, UniProt O35659 22-463)
# T2 sequence (looked up): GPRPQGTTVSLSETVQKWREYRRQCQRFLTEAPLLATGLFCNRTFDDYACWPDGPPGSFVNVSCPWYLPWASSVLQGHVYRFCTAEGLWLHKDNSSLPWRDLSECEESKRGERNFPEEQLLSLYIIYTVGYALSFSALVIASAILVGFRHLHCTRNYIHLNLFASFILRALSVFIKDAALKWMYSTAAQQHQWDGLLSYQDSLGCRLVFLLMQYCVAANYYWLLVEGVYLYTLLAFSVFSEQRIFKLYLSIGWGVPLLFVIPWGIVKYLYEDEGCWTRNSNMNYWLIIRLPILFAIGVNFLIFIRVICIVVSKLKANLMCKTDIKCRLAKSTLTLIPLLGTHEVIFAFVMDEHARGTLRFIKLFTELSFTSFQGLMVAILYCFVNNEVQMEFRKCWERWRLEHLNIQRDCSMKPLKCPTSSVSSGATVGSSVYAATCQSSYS
# T3: rat GLP-1 receptor (rat, UniProt P32301 22-463)
# T3 sequence (looked up): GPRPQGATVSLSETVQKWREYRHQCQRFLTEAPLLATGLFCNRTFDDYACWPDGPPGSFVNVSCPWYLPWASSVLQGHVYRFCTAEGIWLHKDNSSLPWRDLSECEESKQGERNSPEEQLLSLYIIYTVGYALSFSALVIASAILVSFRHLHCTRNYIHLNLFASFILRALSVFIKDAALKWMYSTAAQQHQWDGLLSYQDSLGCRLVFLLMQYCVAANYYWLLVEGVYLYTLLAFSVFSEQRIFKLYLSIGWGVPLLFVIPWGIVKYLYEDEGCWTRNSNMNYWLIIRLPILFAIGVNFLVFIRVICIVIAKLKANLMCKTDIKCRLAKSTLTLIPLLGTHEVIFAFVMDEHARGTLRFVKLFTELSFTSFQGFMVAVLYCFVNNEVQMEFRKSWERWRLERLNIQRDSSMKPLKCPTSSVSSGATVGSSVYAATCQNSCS
# B1: G730 (peptide)
# peptide: HSQGTFTSDYSKK([γGlu-Palmitoyl])LDSERARDFVAWLVAGG-NH2
# modifications: N-terminus assumed
# SMILES: CCCCCCCCCCCCCCCC(=O)N[C@@H](CCC(=O)NCCCC[C@H](NC(=O)[C@H](CCCCN)NC(=O)[C@H](CO)NC(=O)[C@H](Cc1ccc(O)cc1)NC(=O)[C@H](CC(=O)O)NC(=O)[C@H](CO)NC(=O)[C@@H](NC(=O)[C@H](Cc1ccccc1)NC(=O)[C@@H](NC(=O)CNC(=O)[C@H](CCC(N)=O)NC(=O)[C@H](CO)NC(=O)[C@@H](N)Cc1c[nH]cn1)[C@@H](C)O)[C@@H](C)O)C(=O)N[C@@H](CC(C)C)C(=O)N[C@@H](CC(=O)O)C(=O)N[C@@H](CO)C(=O)N[C@@H](CCC(=O)O)C(=O)N[C@@H](CCCNC(=N)N)C(=O)N[C@@H](C)C(=O)N[C@@H](CCCNC(=N)N)C(=O)N[C@@H](CC(=O)O)C(=O)N[C@@H](Cc1ccccc1)C(=O)N[C@H](C(=O)N[C@@H](C)C(=O)N[C@@H](Cc1c[nH]c2ccccc12)C(=O)N[C@@H](CC(C)C)C(=O)N[C@H](C(=O)N[C@@H](C)C(=O)NCC(=O)NCC(N)=O)C(C)C)C(C)C)C(=O)O
# B2: G934 (peptide)
# peptide: HSQGTFTSDK([γGlu-Palmitoyl])SKYLEGQAAKEFIAWLEKGR-OH
# modifications: N-terminus assumed
# SMILES: CCCCCCCCCCCCCCCC(=O)N[C@@H](CCC(=O)NCCCC[C@H](NC(=O)[C@H](CC(=O)O)NC(=O)[C@H](CO)NC(=O)[C@@H](NC(=O)[C@H](Cc1ccccc1)NC(=O)[C@@H](NC(=O)CNC(=O)[C@H](CCC(N)=O)NC(=O)[C@H](CO)NC(=O)[C@@H](N)Cc1c[nH]cn1)[C@@H](C)O)[C@@H](C)O)C(=O)N[C@@H](CO)C(=O)N[C@@H](CCCCN)C(=O)N[C@@H](Cc1ccc(O)cc1)C(=O)N[C@@H](CC(C)C)C(=O)N[C@@H](CCC(=O)O)C(=O)NCC(=O)N[C@@H](CCC(N)=O)C(=O)N[C@@H](C)C(=O)N[C@@H](C)C(=O)N[C@@H](CCCCN)C(=O)N[C@@H](CCC(=O)O)C(=O)N[C@@H](Cc1ccccc1)C(=O)N[C@H](C(=O)N[C@@H](C)C(=O)N[C@@H](Cc1c[nH]c2ccccc12)C(=O)N[C@@H](CC(C)C)C(=O)N[C@@H](CCC(=O)O)C(=O)N[C@@H](CCCCN)C(=O)NCC(=O)N[C@@H](CCCNC(=N)N)C(=O)O)[C@@H](C)CC)C(=O)O
# B3: G973 (peptide)
# peptide: HSQGTFTSDK([γGlu-Palmitoyl])SSYLDSRSARDFVAWLEAGG-OH
# modifications: N-terminus assumed
# SMILES: CCCCCCCCCCCCCCCC(=O)N[C@@H](CCC(=O)NCCCC[C@H](NC(=O)[C@H](CC(=O)O)NC(=O)[C@H](CO)NC(=O)[C@@H](NC(=O)[C@H](Cc1ccccc1)NC(=O)[C@@H](NC(=O)CNC(=O)[C@H](CCC(N)=O)NC(=O)[C@H](CO)NC(=O)[C@@H](N)Cc1c[nH]cn1)[C@@H](C)O)[C@@H](C)O)C(=O)N[C@@H](CO)C(=O)N[C@@H](CO)C(=O)N[C@@H](Cc1ccc(O)cc1)C(=O)N[C@@H](CC(C)C)C(=O)N[C@@H](CC(=O)O)C(=O)N[C@@H](CO)C(=O)N[C@@H](CCCNC(=N)N)C(=O)N[C@@H](CO)C(=O)N[C@@H](C)C(=O)N[C@@H](CCCNC(=N)N)C(=O)N[C@@H](CC(=O)O)C(=O)N[C@@H](Cc1ccccc1)C(=O)N[C@H](C(=O)N[C@@H](C)C(=O)N[C@@H](Cc1c[nH]c2ccccc12)C(=O)N[C@@H](CC(C)C)C(=O)N[C@@H](CCC(=O)O)C(=O)N[C@@H](C)C(=O)NCC(=O)NCC(=O)O)C(C)C)C(=O)O
# Columns and labels:
# human GLP-1 receptor [1] = molecular target: T4, human GLP-1 receptor (human, UniProt P43220 24-463); assay: cell-based or functional assay
# human glucagon receptor [2] = molecular target: T5, human glucagon receptor (human, UniProt P47871 26-477); assay: cell-based or functional assay
# human GLP-1 receptor [3] = molecular target: T4, human GLP-1 receptor; assay: cell-based or functional assay; remark: listed apart in the source
# [4] = molecular target: T1, human glucose-dependent insulinotropic …; assay: cell-based or functional assay
# human glucagon receptor [5] = molecular target: T5, human glucagon receptor; assay: cell-based or functional assay; remark: listed apart in the source
# human GLP-1 receptor [6] = molecular target: T4, human GLP-1 receptor; assay: cell-based or functional assay; remark: listed apart in the source
# [7] = molecular target: T1, human glucose-dependent insulinotropic …; assay: cell-based or functional assay; remark: listed apart in the source
# human glucagon receptor [8] = molecular target: T5, human glucagon receptor; assay: cell-based or functional assay; remark: listed apart in the source
# human GLP-1 receptor [9] = molecular target: T4, human GLP-1 receptor; assay: cell-based or functional assay; remark: listed apart in the source
# mouse GLP-1 receptor = molecular target: T2, mouse GLP-1 receptor; assay: cell-based or functional assay
# mouse glucagon receptor = mouse glucagon receptor (mouse, UniProt Q61606 27-485); assay: cell-based or functional assay
# rat GLP-1 receptor = molecular target: T3, rat GLP-1 receptor; assay: cell-based or functional assay
# rat glucagon receptor = rat glucagon receptor (rat, UniProt P30082 27-485); assay: cell-based or functional assay
# [10] = molecular target: human serum albumin (human) (UniProt P02768); assay: calculated from the variation in cAMP generation with the HSA concentration
# human glucagon receptor [11] = molecular target: T5, human glucagon receptor; assay: cell-based or functional assay; remark: listed apart in the source
# human GLP-1 receptor [12] = molecular target: T4, human GLP-1 receptor; assay: cell-based or functional assay; remark: listed apart in the source
# [13] = molecular target: T1, human glucose-dependent insulinotropic …; assay: cell-based or functional assay; remark: listed apart in the source
# T5 sequence (P47871 26-477): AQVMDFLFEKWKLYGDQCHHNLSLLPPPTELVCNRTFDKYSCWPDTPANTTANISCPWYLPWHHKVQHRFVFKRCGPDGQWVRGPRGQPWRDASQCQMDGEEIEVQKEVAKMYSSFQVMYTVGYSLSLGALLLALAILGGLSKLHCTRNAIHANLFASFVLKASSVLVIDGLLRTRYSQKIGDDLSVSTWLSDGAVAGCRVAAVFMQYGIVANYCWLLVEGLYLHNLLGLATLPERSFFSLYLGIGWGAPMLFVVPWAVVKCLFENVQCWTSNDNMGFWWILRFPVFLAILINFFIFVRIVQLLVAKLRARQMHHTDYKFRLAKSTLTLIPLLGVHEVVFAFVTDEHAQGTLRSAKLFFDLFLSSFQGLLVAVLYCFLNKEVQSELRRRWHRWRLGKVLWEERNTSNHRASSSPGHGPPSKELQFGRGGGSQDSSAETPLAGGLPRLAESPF
# rat glucagon receptor, sequence (P30082 27-485): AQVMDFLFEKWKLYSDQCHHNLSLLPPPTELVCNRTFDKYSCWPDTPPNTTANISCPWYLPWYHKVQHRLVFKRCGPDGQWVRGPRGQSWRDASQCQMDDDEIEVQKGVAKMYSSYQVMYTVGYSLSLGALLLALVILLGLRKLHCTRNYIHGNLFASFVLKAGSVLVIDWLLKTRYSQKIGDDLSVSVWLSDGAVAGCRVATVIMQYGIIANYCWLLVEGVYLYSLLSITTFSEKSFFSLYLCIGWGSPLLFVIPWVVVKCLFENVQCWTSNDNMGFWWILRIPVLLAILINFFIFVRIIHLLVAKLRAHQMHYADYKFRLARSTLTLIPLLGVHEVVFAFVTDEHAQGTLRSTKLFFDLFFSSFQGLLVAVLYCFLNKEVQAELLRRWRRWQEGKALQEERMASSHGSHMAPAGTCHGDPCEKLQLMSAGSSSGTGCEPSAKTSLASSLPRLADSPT
# human serum albumin (human), sequence (P02768 25-609 limits assumed): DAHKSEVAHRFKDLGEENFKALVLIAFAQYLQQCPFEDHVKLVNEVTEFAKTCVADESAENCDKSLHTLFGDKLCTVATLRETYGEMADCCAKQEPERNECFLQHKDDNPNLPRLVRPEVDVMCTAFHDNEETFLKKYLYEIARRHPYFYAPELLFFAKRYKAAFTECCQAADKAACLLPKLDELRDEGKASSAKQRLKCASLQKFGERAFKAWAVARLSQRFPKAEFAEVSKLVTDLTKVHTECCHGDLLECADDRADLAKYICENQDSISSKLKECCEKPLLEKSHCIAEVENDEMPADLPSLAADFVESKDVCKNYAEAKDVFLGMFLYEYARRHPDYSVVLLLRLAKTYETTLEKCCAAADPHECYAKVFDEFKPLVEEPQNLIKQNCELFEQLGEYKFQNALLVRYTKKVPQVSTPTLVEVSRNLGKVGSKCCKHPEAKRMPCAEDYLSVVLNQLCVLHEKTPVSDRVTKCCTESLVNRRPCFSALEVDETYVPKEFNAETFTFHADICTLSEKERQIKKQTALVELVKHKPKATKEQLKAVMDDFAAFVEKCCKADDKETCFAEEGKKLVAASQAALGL
# mouse glucagon receptor, sequence (Q61606 27-485): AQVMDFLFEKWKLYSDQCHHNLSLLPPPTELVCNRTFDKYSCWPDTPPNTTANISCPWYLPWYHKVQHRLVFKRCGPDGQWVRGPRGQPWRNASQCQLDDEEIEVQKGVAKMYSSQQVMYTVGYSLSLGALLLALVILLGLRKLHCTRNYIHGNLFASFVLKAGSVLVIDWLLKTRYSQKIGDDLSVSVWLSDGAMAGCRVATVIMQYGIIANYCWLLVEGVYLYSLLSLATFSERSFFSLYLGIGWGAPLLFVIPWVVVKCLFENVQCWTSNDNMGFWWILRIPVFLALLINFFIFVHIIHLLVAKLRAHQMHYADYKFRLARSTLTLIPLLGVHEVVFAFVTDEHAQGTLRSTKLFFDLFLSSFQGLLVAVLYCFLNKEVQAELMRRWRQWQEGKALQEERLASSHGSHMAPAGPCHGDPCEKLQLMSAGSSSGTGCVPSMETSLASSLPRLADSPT
EC50 at the GLP1R at 0% HSA (calculated) (human GLP-1 receptor [1]),cAMP EC50 (assay 1) (human glucagon receptor [2]),cAMP EC50 (assay 1) (human GLP-1 receptor [3]),cAMP EC50 (assay 1) [4],cAMP EC50 (assay 1) (human glucagon receptor [5]),cAMP EC50 (assay 1) (human GLP-1 receptor [6]),cAMP EC50 (assay 1) [7],"cAMP EC50 (assay 2, 4.4% human serum albumin) (human glucagon receptor [8])","cAMP EC50 (assay 2, 4.4% human serum albumin) (human GLP-1 receptor [9])","cAMP EC50 (assay 2, 3.2% mouse serum albumin) (mouse GLP-1 receptor)","cAMP EC50 (assay 2, 3.2% mouse serum albumin) (mouse glucagon receptor)","cAMP EC50 (assay 2, 3.2% rat serum albumin) (rat GLP-1 receptor)","cAMP EC50 (assay 2, 3.2% rat serum albumin) (rat glucagon receptor)",free peptide at 4.4% HSA [10],cAMP EC50 (assay 1) (human glucagon receptor [11]),cAMP EC50 (assay 1) (human GLP-1 receptor [12]),cAMP EC50 (assay 1) [13],Binder
0.007 nM,0.00623 nM,0.018 nM,45 nM,0.015 nM,0.0395 nM,56.6 nM,0.402 nM,0.455 nM,1.1 nM,5.46 nM,0.081 nM,45.1 nM,0.85%,,,,B1
,,,,,,,,,,,,,,0.0063 nM,0.018 nM,3.6 nM,B2
,,,,,,,,,,,,,,0.0089 nM,0.012 nM,47 nM,B3
